B1: 056-41.B5C ATRIMER complex (designed binder)
chain: EPPTQKPKKIVNAKKDVVNTKMFEELKSRLDTLAQEVALLKEQQALQTVCLKGTKVHMKCFLAFTQTKTFHEASEDCISRGGTLSTPQTGSENDALYEYLRQSVGNEAEIWLGLNGSALTNTWVDMTGARIAYKNWETEITAQPDGGFGYFGENCAVLSGAANGKWFDKRCRDQLPYICQFGIV
modifications: non-covalent homotrimer of the one chain given
notes: not shown: Also the single Ser the vector leaves after the ompA signal
B2: 101-113-6C102 ATRIMER complex (designed binder)
chain: EPPTQKPKKIVNAKKDVVNTKMFEELKSRLDTLAQEVALLKEQQALQTVCLKGTKVHMKCFLAFTQTKTFHEASEDCISRGGTLSTPQTGSENDALYEYLRQSVGNEAEIWLGLNGSNVTQTWVDMTGARIAYKNWEPPPPHHPQGGFGVFGENCAVLSGAANGKWFDKRCRDQLPYICQFGIV
notes: not shown: C-terminal tag
B3: 105-08-1A3 ATRIMER complex (designed binder)
chain: EPPTQKPKKIVNAKKDVVNTKMFEELKSRLDTLAQEVALLKEQQALQTVCLKGTKVHMKCFLAFTQTKTFHEASEDCISRGGTLSTPQTGSENDALYEYLRQSVGNEAEIWLGLNGSPRTDTWVDMTGARIAYKNWETEITAQPDGGWGVFGENCAVLSGAANGKWFDKRCRDQLPYICQFGIV
modifications: Homotrimer of three identical chains (ATRIMER complex); one chain is given.
notes: not shown: C-terminal tag: His/Myc (pANA4) or HA-StrepII (pANA10)
B4: 105-08-1A4 ATRIMER complex (designed binder)
chain: EPPTQKPKKIVNAKKDVVNTKMFEELKSRLDTLAQEVALLKEQQALQTVCLKGTKVHMKCFLAFTQTKTFHEASEDCISRGGTLSTPQTGSENDALYEYLRQSVGNEAEIWLGLNGSAVTNTWVDMTGARIAYKNWETEITAQPDGGFGYFGENCAVLSGAANGKWFDKRCRDQLPYICQFGIV
B5: 105-08-1D3 ATRIMER complex (designed binder)
chain: EPPTQKPKKIVNAKKDVVNTKMFEELKSRLDTLAQEVALLKEQQALQTVCLKGTKVHMKCFLAFTQTKTFHEASEDCISRGGTLSTPQTGSENDALYEYLRQSVGNEAEIWLGLNGSKVTETWVDMTGARIAYKNWETEITAQPDGGFGYFGENCAVLSGAANGKWFDKRCRDQLPYICQFGIV
B6: 105-08-2C10 ATRIMER complex (designed binder)
chain: EPPTQKPKKIVNAKKDVVNTKMFEELKSRLDTLAQEVALLKEQQALQTVCLKGTKVHMKCFLAFTQTKTFHEASEDCISRGGTLSTPQTGSENDALYEYLRQSVGNEAEIWLGLNGSLLTDTWVDMTGARIAYKNWETEITAQPDGGFGVFGENCAVLSGAANGKWFDKRCRDQLPYICQFGIV
B7: 105-08-2F6 ATRIMER complex (designed binder)
chain: EPPTQKPKKIVNAKKDVVNTKMFEELKSRLDTLAQEVALLKEQQALQTVCLKGTKVHMKCFLAFTQTKTFHEASEDCISRGGTLSTPQTGSENDALYEYLRQSVGNEAEIWLGLNGSAYTNTWVDMTGARIAYKNWETEITAQPDGGFGYFGENCAVLSGAANGKWFDKRCRDQLPYICQFGIV
B8: 105-08-2G7 ATRIMER complex (designed binder)
chain: EPPTQKPKKIVNAKKDVVNTKMFEELKSRLDTLAQEVALLKEQQALQTVCLKGTKVHMKCFLAFTQTKTFHEASEDCISRGGTLSTPQTGSENDALYEYLRQSVGNEAEIWLGLNGSPKTGTWVDMTGARIAYKNWETEITAQPDGGFGYFGENCAVLSGAANGKWFDKRCRDQLPYICQFGIV
B9: 105-08-2G10 ATRIMER complex (designed binder)
chain: EPPTQKPKKIVNAKKDVVNTKMFEELKSRLDTLAQEVALLKEQQALQTVCLKGTKVHMKCFLAFTQTKTFHEASEDCISRGGTLSTPQTGSENDALYEYLRQSVGNEAEIWLGLNGSPLTDTWVDMTGARIAYKNWETEITAQPDGGFGYFGENCAVLSGAANGKWFDKRCRDQLPYICQFGIV
B10: 105-20-1H1 ATRIMER complex (designed binder)
chain: EPPTQKPKKIVNAKKDVVNTKMFEELKSRLDTLAQEVALLKEQQALQTVCLKGTKVHMKCFLAFTQTKTFHEASEDCISRGGTLSTPQTGSENDALYEYLRQSVGNEAEIWLGLNGSPLTNTWVDMTGARIAYKNWETEITAQPDGGWGYFGENCAVLSGAANGKWFDKRCRDQLPYICQFGIV
B11: 105-20-1H7 ATRIMER complex (designed binder)
chain: EPPTQKPKKIVNAKKDVVNTKMFEELKSRLDTLAQEVALLKEQQALQTVCLKGTKVHMKCFLAFTQTKTFHEASEDCISRGGTLSTPQTGSENDALYEYLRQSVGNEAEIWLGLNGSAGTNTWVDMTGARIAYKNWETEITAQPDGGFGYFGENCAVLSGAANGKWFDKRCRDQLPYICQFGIV
B12: 105-20-2A3 ATRIMER complex (designed binder)
chain: EPPTQKPKKIVNAKKDVVNTKMFEELKSRLDTLAQEVALLKEQQALQTVCLKGTKVHMKCFLAFTQTKTFHEASEDCISRGGTLSTPQTGSENDALYEYLRQSVGNEAEIWLGLNGSPITNTWVDMTGARIAYKNWETEITAQPDGGFGYFGENCAVLSGAANGKWFDKRCRDQLPYICQFGIV
modifications: Homotrimer of three identical chains (ATRIMER complex); one chain is given.
notes: as for B3
B13: 105-20-2F12 ATRIMER complex (designed binder)
chain: EPPTQKPKKIVNAKKDVVNTKMFEELKSRLDTLAQEVALLKEQQALQTVCLKGTKVHMKCFLAFTQTKTFHEASEDCISRGGTLSTPQTGSENDALYEYLRQSVGNEAEIWLGLNGSKLTDTWVDMTGARIAYKNWETEITAQPDGGFGYFGENCAVLSGAANGKWFDKRCRDQLPYICQFGIV
modifications: ATRIMER complex: homotrimer of three copies of this chain, joined by the tetranectin coiled coil
notes: not shown: C-terminal tag: Myc/His (pANA4) or HA-StrepII (pANA10)
B14: 105-20-2G12 ATRIMER complex (designed binder)
chain: EPPTQKPKKIVNAKKDVVNTKMFEELKSRLDTLAQEVALLKEQQALQTVCLKGTKVHMKCFLAFTQTKTFHEASEDCISRGGTLSTPQTGSENDALYEYLRQSVGNEAEIWLGLNGSPRTNTWVDMTGARIAYKNWETEITAQPDGGFGYFGENCAVLSGAANGKWFDKRCRDQLPYICQFGIV
B15: 101-80-5H3 ATRIMER complex (designed binder)
chain: EPPTQKPKKIVNAKKDVVNTKMFEELKSRLDTLAQEVALLKEQQALQTVCLKGTKVHMKCFLAFTQTKTFHEASEDCISRGGTLSTPQTGSENDALYEYLRQSVGNEAEIWLGLNGSALTNTWVDMTGARIAYKNWEPPAPYHPMAAGVFGENCAVLSGAANGKWFDKRCRDQLPYICQFGIV
B16: 105-20-1B3 ATRIMER complex (designed binder)
chain: EPPTQKPKKIVNAKKDVVNTKMFEELKSRLDTLAQEVALLKEQQALQTVCLKGTKVHMKCFLAFTQTKTFHEASEDCISRGGTLSTPQTGSENDALYEYLRQSVGNEAEIWLGLNGSALTNTWVDMTGARIAYKNWETEITAQPDGGFGYFGENCAVLSGAANGKWFDKRCRDQLPYICQFGIV

Experiments:
[1] = target: T1, recombinant human IL-23R/Fc chimera (R&D Systems) (human, UniProt Q5VWK5 24-355); experiment: SPR
T1 construct: Bought; also called rhIL23RFc
T1 sequence (looked up): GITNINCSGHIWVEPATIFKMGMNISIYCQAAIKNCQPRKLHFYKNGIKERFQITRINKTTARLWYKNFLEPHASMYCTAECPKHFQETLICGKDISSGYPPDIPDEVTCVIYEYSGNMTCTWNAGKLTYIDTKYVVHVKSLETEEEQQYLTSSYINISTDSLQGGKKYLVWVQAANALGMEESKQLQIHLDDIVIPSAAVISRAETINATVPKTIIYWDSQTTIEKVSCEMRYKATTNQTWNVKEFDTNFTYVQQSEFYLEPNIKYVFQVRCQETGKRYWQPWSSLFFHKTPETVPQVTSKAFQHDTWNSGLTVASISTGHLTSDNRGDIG
Protocol: A Biacore 3000 biosensor (GE Healthcare) was used to evaluate the interaction of human IL-23R and receptor binders. Immobilization of an anti-human IgG Fc antibody (GE Healthcare) to the CM5 chip (GE Healthcare) was performed using standard amine coupling chemistry, and this modified surface was used to capture a recombinant human IL-23R/Fc fusion protein (R&D Systems). A low-density receptor surface, less than 200 RU, was used for all of the analyses. ATRIMER™ polypeptide complex dilutions (1-500 nM) were injected over the IL-23R surface at 30 μl/min and kinetic constants were derived from the sensorgram data using the Biaevaluation software (version 3.1, GE Healthcare). Data collection was 3 minutes for the association and 5 minutes for dissociation. The anti-human IgG surface was regenerated with a 30s pulse of 3M magnesium chloride. All sensorgrams were double-referenced against an activated and blocked flow-cell as well as buffer injections.

[2] = target: T1, recombinant human IL-23R/Fc chimera …; experiment: competition ELISA vs IL-23
Protocol: Assays were performed generally as follows. Individual wells in Immulon HB2 plates were incubated overnight at 4° C. with 100 μL PBS containing 100 ng of an anti-human IgG Fc (R&D MAB 110 clone 97924). Plates were washed five times with PBS/0.05% Tween 20, and wells were incubated for 1.5 h at RT with 100 μL each of PBS containing 50 ng of recombinant human IL-23R/Fc. […] Competitor was included at a final concentration of 1 μg/mL. After incubation, plates were washed as described and wells were incubated for 40 min at RT with 100 μL each of PBS containing a 1:5000 dilution of streptavidin-HRP conjugate (Pierce catalog no. 21130). After washing, wells were incubated with 100 μL each of TMB (BioFX Lab catalog no. TMBH-1000-0) for up to 30 min at RT. Reactions were stopped with an equal volume of 0.2 M sulfuric acid.
A number of ATRIMER™ polypeptide complexes were tested in competition ELISA more extensively to determine IC50 values.

[3] = target: T1, recombinant human IL-23R/Fc chimera …; experiment: competition ELISA vs IL-23; remark: listed apart in the source

Binder | Ka [1] | Kd [1] | koff [1] | kon [1] | IC50 [2] | Ratio IC50 to 056-53.H4E IC50 [3]
B1 | 9.78e+08 M⁻¹ | 1.02 nM | 0.000314 s⁻¹ | 307000 M⁻¹ s⁻¹ | 1.65 nM | –
B2 | 9.62e+08 M⁻¹ | 1.04 nM | 0.000283 s⁻¹ | 271000 M⁻¹ s⁻¹ | – | 2
B3 | 2.11e+09 M⁻¹ | 0.473 nM | 0.000348 s⁻¹ | 735000 M⁻¹ s⁻¹ | – | 1.1
B4 | 8e+08 M⁻¹ | 1.25 nM | 0.000312 s⁻¹ | 250000 M⁻¹ s⁻¹ | – | 1.6
B5 | 7.58e+08 M⁻¹ | 1.32 nM | 0.000301 s⁻¹ | 228000 M⁻¹ s⁻¹ | – | 0.4
B6 | 1.63e+09 M⁻¹ | 0.612 nM | 0.000371 s⁻¹ | 606000 M⁻¹ s⁻¹ | – | 0.9
B7 | 1.53e+09 M⁻¹ | 0.653 nM | 0.000359 s⁻¹ | 550000 M⁻¹ s⁻¹ | – | 2.4
B8 | 6.99e+08 M⁻¹ | 1.43 nM | 0.000358 s⁻¹ | 251000 M⁻¹ s⁻¹ | – | 2.5
B9 | 7.58e+08 M⁻¹ | 1.32 nM | 0.000397 s⁻¹ | 302000 M⁻¹ s⁻¹ | – | 1.8
B10 | 1.17e+09 M⁻¹ | 0.857 nM | 0.00032 s⁻¹ | 374000 M⁻¹ s⁻¹ | – | 1.8
B11 | 1.34e+09 M⁻¹ | 0.744 nM | 0.000372 s⁻¹ | 500000 M⁻¹ s⁻¹ | – | 2.1
B12 | 1.32e+09 M⁻¹ | 0.759 nM | 0.000312 s⁻¹ | 412000 M⁻¹ s⁻¹ | – | 1.2
B13 | 5.41e+08 M⁻¹ | 1.85 nM | 0.000471 s⁻¹ | 254000 M⁻¹ s⁻¹ | – | 2.8
B14 | 1.52e+09 M⁻¹ | 0.658 nM | 0.000262 s⁻¹ | 398000 M⁻¹ s⁻¹ | – | 1
B15 | 1.55e+08 M⁻¹ | 6.46 nM | 0.000327 s⁻¹ | 50500 M⁻¹ s⁻¹ | – | 11.3
B16 | 1.31e+09 M⁻¹ | 0.764 nM | 0.00031 s⁻¹ | 405000 M⁻¹ s⁻¹ | – | 1.2

Reference: patent US20110086806A1 (published 2011)
